Test results taken from patent publication US20240218074A1 (AKESO BIOPHARMA, published 2024).

T1: human CD73 expressed on cells (human PBMC CD8+ T cells and CD19+ B cells); endogenous CD73 of MDA-MB-231 and … (human, UniProt P21589 27-549)
T1 construct: whole, on cells; also called NT5E; ecto-5'-nucleotidase
T1 sequence (looked up): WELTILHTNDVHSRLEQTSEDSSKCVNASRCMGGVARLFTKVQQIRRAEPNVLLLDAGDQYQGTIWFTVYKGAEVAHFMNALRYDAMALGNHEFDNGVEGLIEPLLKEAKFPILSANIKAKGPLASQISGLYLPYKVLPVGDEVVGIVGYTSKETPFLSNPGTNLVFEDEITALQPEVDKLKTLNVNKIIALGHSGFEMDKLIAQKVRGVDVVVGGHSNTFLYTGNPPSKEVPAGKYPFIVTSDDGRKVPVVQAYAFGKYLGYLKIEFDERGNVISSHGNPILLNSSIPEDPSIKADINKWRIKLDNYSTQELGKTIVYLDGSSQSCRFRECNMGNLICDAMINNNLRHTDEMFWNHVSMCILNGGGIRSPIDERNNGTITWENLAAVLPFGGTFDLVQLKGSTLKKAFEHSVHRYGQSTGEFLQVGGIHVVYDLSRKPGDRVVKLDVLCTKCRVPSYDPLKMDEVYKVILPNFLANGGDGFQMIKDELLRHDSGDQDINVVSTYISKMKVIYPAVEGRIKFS

T2: human NT5E-Biotin (NT5E is GenbankID: NP_002517.1, position: 1-552) (human, UniProt P21589 27-552, biotin label (site not stated))
T2 construct: range 1-552; Recombinant soluble antigen made by Akeso (batch 20160505), biotinylated and captured on streptavidin; also called HNT5E-Biotin; human NT5E (1-552)-Biotin
T2 sequence (looked up): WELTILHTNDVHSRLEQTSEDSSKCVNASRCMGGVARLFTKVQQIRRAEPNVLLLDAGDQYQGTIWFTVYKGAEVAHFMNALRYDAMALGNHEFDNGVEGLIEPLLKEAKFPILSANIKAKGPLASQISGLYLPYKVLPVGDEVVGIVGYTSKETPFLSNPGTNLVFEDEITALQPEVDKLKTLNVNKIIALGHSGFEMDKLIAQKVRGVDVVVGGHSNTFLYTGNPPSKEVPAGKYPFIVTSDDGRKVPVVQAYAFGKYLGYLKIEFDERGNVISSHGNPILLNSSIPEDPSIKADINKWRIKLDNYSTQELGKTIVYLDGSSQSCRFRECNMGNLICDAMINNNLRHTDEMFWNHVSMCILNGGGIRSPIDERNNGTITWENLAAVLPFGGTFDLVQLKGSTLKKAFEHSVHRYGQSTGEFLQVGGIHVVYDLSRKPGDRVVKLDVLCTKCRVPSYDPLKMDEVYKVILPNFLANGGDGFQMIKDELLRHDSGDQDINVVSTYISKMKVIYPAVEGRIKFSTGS

B1: control antibody CPI-006 (Mupadolimab) (antibody, human IgG1, kappa, N297Q, V domains shown)
VH: QVQLVQSGAEVEKPGASVKVSCKASGYTFTSYWITWVRQAPGQGLEWMGDIYPGSGNTNYNEKFKTRVTITADKSTSTAYMELSSLRSEDTAVYYCAKEGGLTTEDYALDYWGQGTLVTVSS
VL: EIVLTQSPATLSLSPGERATLSCRASKNVSTSGYSYMHWYQQKPGQAPRLLIYLASNLESGIPPRFSGSGYGTDFTLTINNIESEDAAYYFCQHSRELPFTFGQGTKVEIKR
notes: made by Akeso
B2: murine anti-CD73 monoclonal antibody 19F3 (antibody, V domains shown)
VH: EVQLQQSGPELVKPGASMRMSCKASGYSFTGYTMNWVKQSHGKNLEWIGLINPYNAGTSYNQKFKGKATLTVDKSSSTAYMELLSLTSEDSAVYYCARSEYRYGGDYFDYWGQGTTLTVSS
VL: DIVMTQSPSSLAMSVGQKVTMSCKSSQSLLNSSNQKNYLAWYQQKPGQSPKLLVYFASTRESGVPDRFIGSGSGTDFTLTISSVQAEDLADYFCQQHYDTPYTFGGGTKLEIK
notes: Mouse hybridoma antibody purified on protein A; also called murine antibody 19F3; Murine 19F3

What was measured:
[1] = target: T1, human CD73 expressed on cells (human …); test: FACS on human PBMC, binding to CD19+ B cells
Description: (§1) The experimental steps are as follows: The PBMCs were resuscitated, centrifuged at 1,200 rpm for 5 min, and the supernatant was discarded, resuspended in complete medium, counted, and incubated overnight at 37° C. The solution was centrifuged at 1,200 rpm for 5 min, cells were harvested, diluted antibody solution was added at 100 μL/well, mixed well, and incubated in a refrigerator at 4° C. for 1 hour. The solution was centrifuged at 750×g for 5 min, the supernatant was discarded, and washed 2 times with 200 μL of 1×PBS (containing 1% BSA and 0.05% NaN3). Anti-human CD3-FITC (2 μL/100 μL), anti-human CD19-PE (2 μL/100 μL) (Biolegend, article number: 302254), anti-human CD8-PerCP Cy5.5 (1 μL/100 μL), anti-human IgG Fc-AF647 (1:300) (Southern Biotech, catalog number: 9040-31) were added, and incubated at 4° C. for 30 minutes. The solution was centrifuged at 750×g for 5 min, the supernatant was discarded, washed once with 200 μL of 1×PBS (including 1% BSA and 0.05% NaN3); resuspended with 300 μL of 1×PBS (including 1% BSA and 0.05% NaN3), transferred to flow tubes, and loaded for testing.

[2] = target: T1, human CD73 expressed on cells (human …); test: FACS on human PBMC, binding to CD8+ T cells
Description: as §1

[3] = target: T1, human CD73 expressed on cells (human …); test: cell-based or functional assay
[4] = target: T2, human NT5E-Biotin (NT5E is GenbankID: …); test: ELISA on streptavidin-captured human NT5E-Biotin; HRP goat anti-mouse IgG
Description: Experimental steps: After coating the microplate with streptavidin at 2 μg/mL, the microplate was incubated at 4° C. for 12 hours. After the end of incubation, the antigen-coated microplate was rinsed once using PBST, and then blocked for 2 hours using 1% BSA PBST solution as the microplate blocking buffer. After the end of blocking, the microplate was washed three times using PBST. […] The antibody serially diluted with PBST solution was added to the microplate wells. […] The microplate with the antibody to be tested was incubated at 37° C. for 30 minutes, and the microplate was washed three times using PBST after the incubation was completed. […] The microplate was immediately placed into the microplate reader, and the 450 nm optical wavelength was selected to read the OD value of each well of the microplate. Data were analyzed and processed using SoftMax Pro 6.2.1 software.
Curve fitting was performed using the antibody concentration as the abscissa and the absorbance value as the ordinate, and the binding EC₅₀ of the antibody was calculated.

Binder	EC50 [1] [nM]	EC50 [2] [nM]	Inhibition rate EC50 (nM): enzyme activity of CD73 expressed by human PBMC membrane (AMP/ATP CellTiter-Glo read-out) [3] [nM]	EC50 [4] [nM]
B1	0.108	0.288	0.226	–
B2	–	–	–	0.018
